The values below come from the RNAGym collection of RNA variant scans (doi:10.1073/pnas.2313332121).

The labels stand for the following.
B1: TPR 5TU (parent)
chain: GGAUCUUCUCGAUCUAACAAAAAAGACAAAUCUGCCACAAAGCUUGAGAGCAUCUUCGGAUGCAGAGGCGGCAGCCUUCGGUGGCGCGAUAGCGCCAACGUUCUCAACUAUGACACGCAAAACGCGUGCUCCGUUGAAUGGAGUUUAUCAUG

Fewer inactive variants are shown than the library holds. Where only a bound is given, the exact number is not on record here.

Variants of B1 are the subject of this data set. Put plainly: polymerase ribozyme fitness, log enrichment relative to wild type (log ratio); higher = more active; in vitro selection for triplet polymerase activity. The method in brief:
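Mutant libraries of each subunit of a heterodimeric triplet polymerase ribozyme were built by PCR and transcribed. Each library went through one round of in vitro selection in triplicate: annealing with biotinylated primer, partner subunit and triplets, frozen incubation at −7 °C, gel excision of extended constructs, streptavidin-bead capture and RT-PCR. Input and output libraries were Illumina-sequenced; only genotypes with ≥10 input reads and ≥1 read per output were kept. Fitness is log2(genotype enrichment/wild-type enrichment), using inverse-variance-weighted replicate averages.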
In the case of GGAUCUUCUCGAUCUAACAAAAAAGACAAAUCUGCCACAAAGCUUGAGAGCAUCUUCGGAUGCAGAUGCGGCAGCCUUCGGUGGCGCGAUAGCGCCAACGUUCUCAACUAUGACACGCAUAACGCGUGCUCCGUUGAAUGGAGUUUAUCAUG [G67U A120U], the “polymerase ribozyme fitness (log ratio)” value was -2.15.
GGAUCUUCUCGAUCUAACAAAAAAGACAAAUCUGCCACAAAGCUUGAGAGCAUCUUCGGAUGCAGAUGCGGCAGCCUUCGGUGGCGUGAUAGCGCCAACGUUCUCAACUAUGACACGCAAAACGCGUGCUCCGUUGAAUGGAGUUUAUCAUG [G67U C87U]: the “polymerase ribozyme fitness (log ratio)” value is -3.88.
With GGAUCUUCUCGAUCUAACAAAAAAGACAAAUCUGCCACAAAGCUUGAGAGCAUCUUCGGAUGCAGAUGCGGCAGCCUUCGGUGGGGCGAUAGCGCCAACGUUCUCAACUAUGACACGCAAAACGCGUGCUCCGUUGAAUGGAGUUUAUCAUG [G67U C85G] the figure was at most -4.2; with GGAUCUUCUCGAUCUAACAAAAAAGACAAAUCUGCCACAAAGCUUGAGAGCAUCUUCGGAUGCAGAUGCGGCAGCCUUCGGUGGCGCGAUAGCGCCAACGUUCUCAACUAUGACACGCAAAACGCGUGCUCCGUUGAAUGGAGUUCAUCAUG [G67U U146C], -2.47; with GGAUCUUCUCGAUCUAACAAAAAAGACAAAUCUGCCACAAAGCUUGAGAGCAUCUUCGGAUGCAGAUGCGGCAGCCUUCGGUGGCGCGCUAGCGCGAACGUUCUCCACUAUGACACGCCAAACGCGUGCUCCGUUGAAUGGAGUUUAUCAUG [G67U A89C C96G A106C A119C], at most -4.2.
With GGAUCUUCUCGAUCUAACAAAAAAGACAAAUCUGCCACAAAGCUUGAGAGCAUCUUCGGAUGCAGAUGCGGCAGCCUUCGGUUGCGCGAUAGCGCCAACGGUCUCAACUAUGACACGCAAAACGCGUGCUCCGUUGAAUGGAGUUUAUCAUG [G67U G83U U101G] the figure was at most -4.2; with GGAUCUUCUCGAUCUAACAAAAAAGACAAAUCUGCCACAAAGCUUGAGAGCAUCUUCGGAUGCAGAUGCGGCAGCCUUCGGUGGCGCGAUAGUGCCAACGUUCUCAACUAUGACACGCAAAACGCGUGCUCCGUUGAAUGGAGUUUAUCAUG [G67U C93U], -3.74.
With GGAUCUUCUCGAUCUAACAAAAAAGACAAAUCUGCCACAAAGCUUGAGAGCAUCUUCGGAUGCAGAGACGGCAGCCUUCGGUGGCGCGAUGGCGCCAACGUUCUCAACUAUGACACGCAAAACGCGUACUCCGUUGAAUGGAGUUUAUCAUG [G68A A91G G128A] the figure was at most -4.2.
With GGAUCUUCUCGAUCUAACAAAAAAGACAAAUCUGCCACAAAGCUUGAGAGCAUCUUCGGAUGCAGAGACGGCAGCCUUCGGUGGCGCGAUAGCGCCAACGUUCUCAACUAUGACACGCAAAACGCGUGCUCCGUUGAAUGGAGUUUAUCAUG [G68A], the “polymerase ribozyme fitness (log ratio)” value was -3.29.
With GGAUCUUCUCGAUCUAACAAAAAAGACAAAUCUGCCACAAAGCUUGAGAGCAUCUUCGGAUGCAGACGCGGCAGCCUUCGGUGGCGCGAUAGCACCAACGUUCUCAACUAUGACACGCAAAACGCGUGCUCCGUUGAAAGGUGUUUAUCAUG [G67C G94A U139A A142U] the figure was at most -4.2.
With GGAUCUUCUCGAUCUAACAAAAAAGACAAAUCUGCCACAAAGCUUGAGAGCAUCUUCGGAUGCAGAUGCGGCAGCCUUCGGUGGCGCGAUAGCCCCAACGUUCUCAACUAUGACACGCCAAACGCGUGCUCCGGUGAAUGGAGUUUCUCAUG [G67U G94C A119C U134G A147C] the figure was at most -4.2; with GGAUCUUCUCGAUCUAACAAAAAAGACAAAUCUGCCACAAAGCUUGAGAGCAUCUUCGGAUGCAGAUGCGGCAGCCUUCGGUGGCGCGAUAGCGCCAACGUGCUCAACUAUGACACGCAAAACGCGUGCUCCGUUGAAUGGAGUUUAUCAUG [G67U U102G], at most -4.2; with GGAUCUUCUCGAUCUAACAAAAAAGACAAAUCUGCCACAAAGCUUGAGAGCAUCUUCGGAUGCAGAUGCGGCACCCUUCGGUGGCGCGAUAGCGCCAACGUUUUCAACUAUGACACGCAAUACGCGUGCUCCGUUGCAUGGAGGUUAUCAUG [G67U G74C C103U A121U A137C U144G], at most -4.2.
With GGAUCUUCUCGAUCUAACAAAAAAGACAAAUCUGCCACAAAGCUUGAGAGCAUCUUCGGAUGCAGACGCGGCAGCCUUCGGUGGCCCGAUAGCGCAAACGUUCUCAACUAUUUCACGCAAAACGCUUGCUCCGUUGAAUGGAGUUUAUCAUG [G67C G86C C96A G112U A113U G126U] the figure was at most -4.2.
Regarding GGAUCUUCUCGAUCUAACAAAAAAGACAAAUCUGCCACAAAGCUUGAGAGCAUCUUCGGAUGCAGAUGCGGCAGCGUUCGGUGGCGCGAUAGCGCCAACGUUCUCAACUAUGACACGCAAAACGCGUGCUCCGUUGAAUGGAAUUUAUCGUG [G67U C76G G143A A150G], the “polymerase ribozyme fitness (log ratio)” value was at most -4.2.
As for GGAUCUUCUCGAUCUAACAAAAAAGACAAAUCUGCCACAAAGCUUGAGAGCAUCUUCGGAUGCAGACGCGGCAGCCUUCGGUGGCGCGAUAACGCUAACGUUCUCAACUAUGACACGUAAAACGCGUGCUCCGUUGAAUGGAGUUUAUCAUG [G67C G92A C96U C118U], the “polymerase ribozyme fitness (log ratio)” value is at most -4.2.
With GGAUCUUCUCGAUCUAACAAAAAAGACAAAUCUGCCACAAAGCUUGAGAGCAUCUUCGGAUGCAGAGACGGCAGCCUUCGGUGGCGCGAUCGCGCCAACGUUCUCAACUAUGACACGCAGAACGCGUGCUCCGUUGAAUGGAGUUUCUCAUG [G68A A91C A120G A147C] the figure was at most -4.2.
With GGAUCUUCUCGAUCUAACAAAAAAGACAAAUCUGCCACAAAGCUUGAGAGCAUCUUCGGAUGCAGACGCGGCAGCCUUCGGUGGCGCCAUAGCGCCAACGUUCUCAACUAUGACAGGCAAAUCGCGUUCUCCGUUGAAUGGAGAUUAUCAUG [G67C G88C C116G A122U G128U U144A] the figure was at most -4.2; with GGAUCUUCUCGAUCUAACAAAAAAGACAAAUCUGCCACAAAGCUUGAGAGCAUCUUCGGAUGCAGAUGCGGCAGCCUUCGGUGGCGCGAUAGCGCCAACGUUCUCAACUAUGACACGCAAAACGCGUGCUCCGUUGAAUGGAGUUUAUCAUG [G67U], -2.55.
